Measurements taken from the supplement of paper PMC9170038.

How the values were obtained:
MS2 coat protein [1] = experiment: apparent KD of MS2 coat protein; designed switch direction (-1 OFF switch, 1 ON switch): -1; higher = weaker reporter binding; details: Eterna round: R98
Procedure: (§1)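 RNA-MaP: designed FMN/MS2 RNA switches (84 nt design region) are transcribed on-chip within common flanks and titrated with SNAP-549-labelled MS2 coat protein (about 1-3000 nM) in 100 mM Tris pH 7.5, 80 mM KCl, 4 mM MgCl2, without or with 200 uM FMN. Median apparent KD per design; activation ratio = KD,OFF / KD,ON.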

MS2 coat protein [2] = experiment: apparent KD of MS2 coat protein; higher = weaker reporter binding; details: Eterna round: R101
Procedure: as §1

MS2 coat protein [3] = experiment: apparent KD of MS2 coat protein; designed switch direction (-1 OFF switch, 1 ON switch): 1; higher = weaker reporter binding; details: Eterna round: R98
Procedure: as §1

Sequence | apparent KD of MS2 coat protein (MS2 coat protein [1]; input ligand: FMN 200 uM) [nM] | apparent KD of MS2 coat protein (MS2 coat protein [1]; input ligand: none) [nM] | apparent KD of MS2 coat protein (MS2 coat protein [2]; input ligand: FMN 200 uM) [nM] | apparent KD of MS2 coat protein (MS2 coat protein [2]; input ligand: none) [nM] | further results
AAAGUCGAGAAGAUAAUAAUGAAUACAUGAGGAUCACCCAUGUAGGAUAUGCAGUGGAAUACACUGCAGAAGGACAUACUCGAC [Exclusion NG 3/16-B1] | 16.4 | 13.6 |  |  | 
AAAUAAAUUCAAGGAUAUGACUCCGAAACGGAGUCAGAAGGUGAGGAUCACCCACCUAUGAUCAGACCUCAGGAAACUGAGGUC [#SharedSequence ExNG1 - 39] (puzzle (switch architecture): Exclusion NG 1) |  |  | 6.56 | 6.19 | 
AAAUAAAUUGAAGGAUAUCAGGGUGCACCUCAGUAAAACUGAGGUGCACCCUGAGAAGGUCGAGGAUCACCCGAUCUAAAUAAA [#SharedSequence SLExNG1: 1-2] (puzzle (switch architecture): Small Loop Exclusion NG 1) |  |  | 12 | 8.76 | 
AAUAAACAAUAAAAGACUGGAGCAAACUUCUGAGGAUCACCCAGAAGGCGUCACCUAAUAGGUGACGAGGAUAUGGAGCUCCAG [#SharedSequence IExNG# - 2] (puzzle (switch architecture): Inverted Exclusion NG 3) |  |  | 6.36 | 5.76 | 
AAUUAAUUAAUUAAUUGGACUGAUACAUGAGGAUCACCCAUGUAGGAUAUGCAGUGGAAUACACUGCAGAAGGACAUACAGUCC [Exclusion NG 3/1-B2] | 18.3 | 14.5 |  |  | 
AGACCUGCUCAGAAGGUGGGAACGAGGCUGGAAACAGCCUCGAAAUUAAAUCCUUGAGGAUCACCCAAGGAUAUGAGCAGGUCA [#SharedSequence - IExNG2: 12] (puzzle (switch architecture): Inverted Exclusion NG 2) |  |  | 84.3 | 10.3 | 
AGAGCUGCUCAGAAGGAGGAUCACCCUUUCGAAAGAAAUACGGAGGCUGAAAAGCCUCCGAAAUCUUAGGAUAUGAGCAGCUCA [#SharedSequence - IExNG2: 6] (puzzle (switch architecture): Inverted Exclusion NG 2) |  |  | 166 | 153 | 
AGGUGGGUGCUGCAGUGAUAUACAUGAGGAUCACCCAUGUCCGAGGAUAUGCGGCAAACACGCCAGCAGAAGGCGGAGAAAAUG [Soorisrila] | 154 | 125 |  |  | 
AGUACUCCAGAAGGAUAUGCGUCGGUGGAUGUCCUUAGGCGGACGGUCACAUGAGGAUCACCCAUGUAGAAGGUCUGGGAGCCA [Leesla] | 87.3 | 19.2 |  |  | 
AUGGUUGUCGUAGGAUAUGUAGGAUAUUCCUACAUGAGGAUCACCCAUGUUCGCAUGGAAGAAGGACAGAAGGACGAUGACCAA [salish99_SSNG2_008 #endbits investigation] (puzzle (switch architecture): Same State NG 2) |  |  | 9.65 | 840 | 
CAAUUGGCACAGAAGGGUGACAUGAGGAUCACCCAUGUAGCGUGGCUCUCAGGAGGAGCCACGCCACAGGAUAUGUGCCGGCAC [Anrilaage] (puzzle (switch architecture): Inverted Same State NG 2) |  |  | 102 | 177 | 
CACGACAGGAAACGGAGCGGCCAACAUGAGGAUCACCCAUGUGAGGAUAUGCCUACUAAAAGUAGGCAGAAGGCACAGAAGGCA [Ex NG2 #73] | 136 | 58.1 |  |  | 
CUCCCUCCCUCCCUCCCUCCCUCCGAGGAUAUCCCAAACUCCCUCCCUCCCUCCCUCCCAAAUUCCCAGAAGGCCCUUUUUCCC [2nd design] (puzzle (switch architecture): Small Loop Same State NG 3) |  |  | 4.61 | 46.4 | 
CUUACUUUGUAGAAGGGUGACAUGAGGAUCACCCAUGUGCGUCUCCUGAAAGACCAGGGUACGCCACAGGAUAUACAAAGUAAG [Tigeatdi] (puzzle (switch architecture): Inverted Same State NG 2) |  |  | 59.8 | 116 | 
GCACUGGAUGUAGGAUAUCAGGACGAUAAGUCCUGAGAAGGACAUGAGGAUCACCCAUGUAAAUACUCCCAGUGCAAUAAUAUA [Denovo Exng1 21] | 16.6 | 12.6 |  |  | 
GCAGCUAAUGCAGGAUAUCAGCACGUGUAGUGCUGAGAAGGGCACAUGAGGAUUCUGUCUGUGAUCAAUUAAUAUUAAUGCUGC [salish99#hingeEx3_55-58_006] (puzzle (switch architecture): Exclusion NG 1) |  |  | 11.5 | 30.4 | 
GCGUAAAAGAUCCUAUUUAUCUACAUGAGGAUCACCCAUGUGCAGGAUAUGCUAUAUUUAAUAAAGCAGAAGGGCAAUAACCGC [JR_ExcNG3_Sub009] | 281 | 67.6 |  |  | 
GCUGCAAAGUAAGGAUAUGCCUAGGAAACCUAGGCAGAAGGUACAUGAGGAUCACCCAUGUUAACUGAAACAGAAUAAAGCAGC [Thrunch 6 - Jieux - Exclusion NG 1] | 23.2 | 13.5 |  |  | 
GGUCGACCUCAAGGAUAUGGACUGCAAAGCAGUCCAGAAGGUGAGGAUCACCCACCUACGGUCAGGAAACUGACCGAUCGACCA [#SharedSequence - ExNG1-2] (puzzle (switch architecture): Exclusion NG 1) |  |  | 117 | 19.8 | 
GGUUAUAUAACAUGAGGAUCACCCAUGUGAGUGGUCCGAAGCUAGGAUAUCCACACGAGAAGUGUGGAGAAGGAGCAUUCAUUA [AK-NGROCr2-ExNG3-7] | 159 | 273 |  |  | 
GUAGCUAUCGGAGGAUAUUCAUACCGGAAACGGACAUGAGGAUCACCCAUGUGGCGAAAGCCAUGGGAGAAGGCCGAUAGCUAC [jl-sng2-3.01 #MUTATE_MAP] (puzzle (switch architecture): Same State NG 2) |  |  | 52.2 | 856 | 
UAAAUAGAUCCUAGAGGAUCACCCUAGGAUAUCACCGUCGAGGUGCCAUAAUGGCACCUCGACGGUGAGAAGGAGGGAAAUAAA [#SharedSequence - SLExNG3: 2] (puzzle (switch architecture): Small Loop Exclusion NG 3) |  |  | 77.8 | 51.2 | 
UCACUCACGUUAGGAUAUGGAUCGGAAAACGAUCCAGAAGGAACCUGCAAACCUGAGGAUCACCCGGGUUCCAAUAACGAGUGA [SameSame 9 - Jieux - Same State NG 1] |  |  |  |  | apparent KD of MS2 coat protein (MS2 coat protein [3]; input ligand: FMN 200 uM): 458 nM; apparent KD of MS2 coat protein (MS2 coat protein [3]; input ligand: none): 778 nM
UCCGCUAUCGCAGGAUAUUACAUGGGAAAGAGUACAUGAGGAUCACCCAUGUAAAAGAUCAUAAAUAAGAAGGGCGAUAGCGGA [Lame State 9 - Jieux - Same State NG 2] |  |  |  |  | apparent KD of MS2 coat protein (MS2 coat protein [3]; input ligand: FMN 200 uM): 214 nM; apparent KD of MS2 coat protein (MS2 coat protein [3]; input ligand: none): 18.8 nM
UCUUAAAUGAUCCUAUUUACCAACAUGAGGAUCACCCAUGUGCAGGAUAUGCUAAAGAUAGAUAAGCAGAAGGGCAUUAACCGC [JR_ExcNG3_Sub006] | 244 | 165 |  |  | 
UGGAUCAAUACAGGAUAUGGUGACGCACAUGAGGAUCACCCAUGUCCGCAGCGUGCUAAGCACGCCCAGAAGGGUAUUGACUUG [Enxe] |  |  |  |  | apparent KD of MS2 coat protein (MS2 coat protein [3]; input ligand: FMN 200 uM): 106 nM; apparent KD of MS2 coat protein (MS2 coat protein [3]; input ligand: none): 858 nM
UGGGAAUGAACAUGAGGAUCACCCAUGUCCCGGAAACGGAAUGAGGAUAUCCAUAGCAAAGCUAUGGAGAAGGCAUGGGUCCCA [SaneState 20 - Jieux - Same State NG 2] |  |  |  |  | apparent KD of MS2 coat protein (MS2 coat protein [3]; input ligand: FMN 200 uM): 475 nM; apparent KD of MS2 coat protein (MS2 coat protein [3]; input ligand: none): 756 nM
UGUGUUAUCGGAGGAUAUCGAUAUCAAACAUGAGGAUCACCCAUGUUGAGGAUCACCCAUGUCCACGAGAAGGCCGGCGUACUG [My 7th design] (puzzle (switch architecture): Same State NG 2) |  |  | 12.5 | 12.9 | 
UUGCAUUGAUGAGGAUAUGGACAUGAGGAUCACCCAUGUUGGGCGGGUAUGAUUUCCGAGGGAGGCUAGAAGGCGUAUUAUGUU [Exclusion NG 2] | 60.8 | 45.5 |  |  | 
